Publication doi:10.1101/813527

Columns and labels:
[1] = target: GFP-S14D S26D-SAP (phosphomimetic SAF-A SAP domain) (UniProt Q00839); assay: EMSA
[2] = target: GFP-WT-SAP (SAF-A SAP domain) (UniProt Q00839); assay: EMSA

AATTCAGAAAATAATAAAATAAAACTAGCTATTTTATATTTTTTC (double strand) [AT-rich SAR DNA]
Kd [1]: > 75 µM | Kd [2]: 16.5 µM
